Data published in article PMC8005859 (2021).
Values joined by “and” are separate entries in the source; they are usually repeats but may differ in a detail not shown here. Equal values may be shown once.

Target: SARS-CoV-2 S trimer (SARS-CoV-2, UniProt P0DTC2)
Assay: SPR

B1: P17 (antibody, V domains shown)
VH: QQLVESGGGVVQPGRSLRLSCAASGFTFSSYAMHWVRQAPGKGLEWVAVISYDGSNKYYADSVKGRFTISRDNSKNTLYLQMNSLRAEDTAVYYCARHATLMNNKDIWGQGTLVTVSS
VL: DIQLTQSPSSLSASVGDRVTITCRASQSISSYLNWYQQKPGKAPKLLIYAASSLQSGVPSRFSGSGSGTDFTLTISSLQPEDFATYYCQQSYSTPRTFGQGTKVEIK
Kd: 140 pM and 80 pM and 60 pM
